The target of assay [1] is His6.TssA1^B CTD H12-H14 (303-358) (B. cenocepacia). The assay is described as follows: crystal structure; His6.TssA1^B CTD H12-H14 (303-358), 2.35 Å, two molecules in the asymmetric unit.
Assay [2] has as its target His6.TssA2^A (1-478) (A. hydrophila). The assay is described as follows: SEC-MALS; S200 10/300 column, 50 mM Tris.HCl (pH 8.0), 500 mM NaCl, ~20 °C; 4.5-6.8 mg/ml. For orientation: Size exclusion chromatography separates by hydrodynamic size, large species first.
Assay [3] concerns the target His6.TssA2^A CTD (381-478) (A. hydrophila). Described as above.
In assay [4] the target is His6.TssA2^A Nt2 (223-387) (A. hydrophila). The experiment in a line: crystal structure; His6.TssA2^A Nt2 (223-387), ethyl mercury phosphate derivative, 2.16 Å, two monomers in the asymmetric unit.
Assay [5] deals with His6.TssA2^A Nt2-CTD (223-478) (A. hydrophila). The assay is described as follows: SEC-MALS; S200 10/300 column, 50 mM Tris.HCl (pH 8.0), 500 mM NaCl, ~20 °C; 4.5-6.8 mg/ml.
Assay [6] has the same target. The assay is described as follows: crystal structure; His6.TssA2^A Nt2-CTD (223-478), 3.13 Å, ten subunits in the asymmetric unit.
Assay [7] addresses Native TssA1^B (1-373) (B. cenocepacia). The experiment in a line: SEC-MALS; Superose-6 10/300 column, 10 mM phosphate buffer (pH 7.4), 2.7 mM KCl, 137 mM NaCl, ~20 °C.
Assay [8] deals with TssA1^B CTD (303-373) (B. cenocepacia). The experiment in a line: crystal structure; TssA1^B CTD (303-373), 3.08 Å, spacegroup I222, eight monomers in the asymmetric unit.
Assay [9] deals with TssA1^B CTD fragment (303-347) (B. cenocepacia). The assay is described as follows: crystal structure; TssA1^B CTD fragment 303-347 (clipped 303-373 construct), 1.78 Å, spacegroup I222.
Assay [10] concerns the target TssA2^A Nt1-Nt2.His6 (231-374) (A. hydrophila). The experiment in a line: crystal structure; TssA2^A Nt2 (231-374) from the Nt1-Nt2.His6 construct, 1.76 Å, four molecules in the asymmetric unit.

What is called stoichiometry N is the number of molecules, sites or subunits per partner or assembly. “His6.TssA1^B CTD H12-H14 (303-358) (domain or fragment)”: the stoichiometry N in assay [1] worked out at 2.
For His6.TssA2^A (1-478) (natural protein), the stoichiometry N in assay [2] is 10.
The substance “His6.TssA2^A CTD (381-478) (domain or fragment)” came in with a stoichiometry N in [3] of 10.
With “His6.TssA2^A Nt2 (223-387) (domain or fragment)”, in [4], the stoichiometry N is 2.
As for “His6.TssA2^A Nt2-CTD (223-478) (domain or fragment)”, the stoichiometry N in assay [5] and in assay [6] was 10 in each case.
As for “Native TssA1^B (1-373) (natural protein)”, the stoichiometry N in assay [7] came out at 30 subunits.
As to “TssA1^B CTD (303-373) (domain or fragment)”, the stoichiometry N in assay [8] is 32 subunits.
Regarding “TssA1^B CTD fragment (303-347) (domain or fragment)”, the stoichiometry N in assay [9] amounted to 2.
The substance “TssA2^A Nt1-Nt2.His6 (231-374) (domain or fragment)” showed a stoichiometry N in [10] of 2.

The values above are taken from paper PMC6232143.
